Laboratory results published in article PMC3764193.

Target: T1, recombinant (His)6-Bwc2 (Cryptococcus neoformans var. neoformans JEC21) (UniProt Q5EGQ1)
T1 sequence: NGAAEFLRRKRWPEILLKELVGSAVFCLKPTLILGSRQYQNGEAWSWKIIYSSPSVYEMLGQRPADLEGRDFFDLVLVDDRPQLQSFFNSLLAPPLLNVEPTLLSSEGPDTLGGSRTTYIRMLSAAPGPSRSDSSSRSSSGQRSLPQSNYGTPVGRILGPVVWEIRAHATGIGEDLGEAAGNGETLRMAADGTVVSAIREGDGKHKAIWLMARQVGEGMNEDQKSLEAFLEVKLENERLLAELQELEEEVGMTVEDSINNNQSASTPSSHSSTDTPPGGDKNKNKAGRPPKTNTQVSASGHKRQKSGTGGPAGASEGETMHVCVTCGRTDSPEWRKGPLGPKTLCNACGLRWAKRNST
Test: EMSA
Conditions: 1X EMSA buffer (from 5X: 20% w/v glycerol, 5 mM MgCl2, 250 mM NaCl, 2.5 mM EDTA pH 8, 10 mM DTT, +/-12 uM ZnSO4) + 1X phosphate buffer, 20 ul; 20 min …

Question: “GTAGTCACCAGTCATTCAGTTACTCTGTTATGACGTGACGTCGTTACTCTCGATCTTCATCTCGATCTCCACCTTGCAAGCTTTTCAGGCTTTTTACTCATCGTTCACTATATAATACGATACCACACTTGACATTTCTTCGGTATGTATAAAACGCAGTCGCGAGTACTTCCTTCTGCTTTTGCAACAAACACGTCTGCATTTGTTGCCAAGTATTTATATCAGCATTAAGTACATGAGGTTC (double strand) [P1 (UVE1 promoter)]” was tested. Which binding did it give?
Answer: binds
